Drawing on patent US20070031863A1, this text covers IgG synthesis by purified B cells stimulated with LPS (control) for 1 substance.

This test has as its target CD70 (human) (UniProt P32970). The test can be described thus: cell-based or functional assay.

CD70 (human), sequence (P32970 whole entry): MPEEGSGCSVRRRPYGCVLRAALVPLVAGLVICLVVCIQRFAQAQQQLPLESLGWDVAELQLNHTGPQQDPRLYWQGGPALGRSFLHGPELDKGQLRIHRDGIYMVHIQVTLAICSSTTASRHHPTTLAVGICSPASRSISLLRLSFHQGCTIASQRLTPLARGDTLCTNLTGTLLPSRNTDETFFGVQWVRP

For the substance “anti-CD70 monoclonal antibody (HNE51) (Dako)”, the IgG synthesis by purified B cells stimulated with LPS (control) was found to be 125 µg/mL.
